Results reported in publication PMC11470957 (2024).

B1: BRD3^BD2 (second bromodomain of BRD3, residues 306-416) (domain or fragment)
chain: GKLSEHLRYCDSILREMLSKKHAAYAWPFYKPVDAEALELHDYHDIIKHPMDLSTVKRKMDGREYPDAQGFAADVRLMFSNCYKYNPPDHEVVAMARKLQDVFEMRFAKMP
B2: KLHDC2 substrate binding domain (KLHDC2^SBD, 15-361) (domain or fragment)
chain: GPAFESYESMELACPAERSGHVAVSDGRHMFVWGGYKSNQVRGLYDFYLPREELWIYNMETGRWKKINTEGDVPPSMSGSCAVCVDRVLYLFGGHHSRGNTNKFYMLDSRSTDRVLQWERIDCQGIPPSSKDKLGVWVYKNKLIFFGGYGYLPEDKVLGTFEFDETSFWNSSHPRGWNDHVHILDTETFTWSQPITTGKAPSPRAAHACATVGNRGFVFGGRYRDARMNDLHYLNLDTWEWNELIPQGICPVGRSWHSLTPVSSDHLFLFGGFTTDKQPLSDAWTYCISKNEWIQFNHPYTEKPRLWHTACASDEGEVIVFGGCANNLLVHHRAAHSNEILIFSVQP

Columns and labels:
KLHDC2 R56A mutant [1] = biological target: T1, KLHDC2 R56A mutant (UniProt Q9Y2U9 15-361, R56A); experiment: ITC; ternary complex with PROTAC SJ46421
KLHDC2 R56A mutant [2] = biological target: T1, KLHDC2 R56A mutant; experiment: ITC; ternary, with SJ46421
[3] = biological target: KLHDC2 R112 to alanine mutant (UniProt Q9Y2U9 15-361, R112 to alanine); experiment: ITC; ternary, with SJ46421
[4] = biological target: KLHDC2 H346/R347 to alanine mutant (UniProt Q9Y2U9 15-361, H346 to alanine | R347 to alanine, H346A and R347A taken as one combined double mutant, because the text lists H346/R347 as one of four patches mutated to alanine; whether they were combined is not printed explicitly); experiment: ITC; ternary, with SJ46421
[5] = biological target: KLHDC2 K291 to alanine mutant (UniProt Q9Y2U9 15-361, K291 to alanine); experiment: ITC; ternary, with SJ46421
[6] = biological target: T2, BRD3^BD2 E344G swap mutant (UniProt Q15059 306-416, E344G); experiment: ITC; ternary complex with PROTAC SJ46421
[7] = biological target: T3, BRD4^BD2 G-to-E swap mutant (G386E) (UniProt O60885 334-460, G-to-E swap mutation (G386)); experiment: ITC; ternary complex with PROTAC SJ46421
[8] = biological target: T4, BRD2^BD2 G-to-E swap mutant (G382E) (UniProt P25440 344-455, G-to-E swap mutation (G382)); experiment: ITC; ternary complex with PROTAC SJ46421
[9] = biological target: T5, BRD4^BD2 (second bromodomain of BRD4, residues 334-460) (UniProt O60885 334-460); experiment: ITC; ternary complex with PROTAC SJ46421 (BRD4BD2-SJ46421 in cell)
[10] = biological target: B1; experiment: ITC; ternary, BRD3 BD2 pre-bound to SJ46423
[11] = biological target: T6, BRD2^BD2 (second bromodomain of BRD2, residues 344-455) (UniProt P25440 344-455); experiment: ITC; ternary complex with PROTAC SJ46421 (BRD2BD2-SJ46421 in cell)
[12] = biological target: T6, BRD2^BD2 (second bromodomain of BRD2, …); experiment: ITC; ternary, BRD2 BD2 pre-bound to PROTAC SJ46421
[13] = biological target: B1; experiment: ITC; ternary complex with PROTAC SJ46421 (BRD3BD2-SJ46421 in cell)
[14] = biological target: B1; experiment: ITC; ternary, BRD3 BD2 pre-bound to PROTAC SJ46421
[15] = biological target: T5, BRD4^BD2 (second bromodomain of BRD4, …); experiment: ITC; ternary, BRD4 BD2 pre-bound to PROTAC SJ46421
[16] = biological target: T2, BRD3^BD2 E344G swap mutant; experiment: ITC; ternary, with SJ46421
[17] = biological target: T3, BRD4^BD2 G-to-E swap mutant (G386E); experiment: ITC; ternary, with SJ46421
[18] = biological target: T4, BRD2^BD2 G-to-E swap mutant (G382E); experiment: ITC; ternary, with SJ46421
[19] = biological target: B1; experiment: ITC; ternary complex with PROTAC SJ46423 (BRD3BD2-SJ46423 in cell)

Binder	Kd (KLHDC2 R56A mutant [1]) [nM]	Kd (KLHDC2 R56A mutant [2]) [nM]	Kd [3] [nM]	Kd [4] [nM]	Kd [5] [nM]	Kd [6] [nM]	Kd [7] [nM]	Kd [8] [nM]	Kd [9] [nM]	Kd [10] [nM]	Kd [11] [nM]	Kd [12] [nM]	Kd [13] [nM]	Kd [14] [nM]	Kd [15] [nM]	Kd [16] [nM]	Kd [17] [nM]	Kd [18] [nM]	Kd [19] [nM]
B1	273	273	39.7	50.9	25.6														
B2						181	24.5	95.4	109	251	208	208	19	19	109	181	24.5	95.4	251
